In patent publication US10765739B2, “Use of MIF and MIF pathway agonists” (Yale University, priority 2006, dated 2020):

What was measured:
AMPK [1] = assay: AMPK Thr172 phosphorylation (immunoblot densitometry) in isolated heart papillary muscles; assay type: cell-based, rat; settings: normoxic heart muscles
Experimental: (§1) Briefly, rat heart anterior and posterior left ventricular papillary muscles (3-5 mg) were equilibrated in oxygenated Dulbecco's phosphate-buffered saline (PBS) containing 1 mM MgCl2 […], glucose, and 1% BSA. Unless otherwise noted, 100% oxygen flowed continuously through sealed muscle incubation containers while muscles were kept in an oscillating water bath at 37° C., and experiments began after a 15 minute equilibration period in these conditions. During incubations designed to examine the effects of hypoxia, muscles were transferred to incubation containers gassed with N2 for 30 minutes. In incubations with rMIF (0-800 ng/ml), anti-MIF blocking antibody (100 μg/ml), and/or non-immune rabbit IgG (100 μg/ml); Sigma, USA), these compounds were added for 30-120 minutes. At the end of experiments, muscles were freeze clamped and stored in liquid nitrogen until further analysis, unless otherwise specified.
(§2) Immunoblots were performed according to standard methods known in the art. See, for example, Li et al., Am. J. Physiol Endocrinol Metab 287, E384 (2004) and Baron et al., Circ Res (Jan. 13, 2005). Heart homogenate proteins were combined with Laemmli sample buffer prior to resolution by SDS-PAGE, transferred onto polyvinylidene difluoride membranes, immunoblotted, detected with enhanced chemiluminesence, and quantified by densitometry.

[2] = test system: rat heart left ventricular papillary muscles; assay: 2-deoxy-[1-3H]glucose uptake in isolated heart papillary muscles; assay type: cell-based; settings: normoxic heart muscles, 0-800 ng/ml for 60 minutes
Experimental: as §1
To further support MIF's role in modulating the AMPK pathway, we added recombinant human MIF (rMIF) to intact normoxic heart muscles. Papillary muscles were isolated as above. […]

GLUT4 = assay: Cell-surface GLUT4 content of papillary muscles by bio-LC-ATB-BGPA photolabel; assay type: cell-based, rat; settings: 400 ng/ml for 60 minutes
Experimental: as §1, with “At the end of experiments, muscles were freeze clamped and stored in liquid nitrogen until further analysis, unless otherwise specified.” left out
Glucose uptake is primarily mediated by the glucose transporter, GLUT4, and AMPK-stimulation of glucose transport is due to the translocation of GLUT4 vesicles to the cell surface, where GLUT4 is physiologically active (Sun et al., Circulation 89, 793 (1994); Young et al., Circulation 95, 415 (1997)). Thus, we assessed the cell-surface GLUT4 content of heart muscles after incubation with rMIF, utilizing a cell-membrane impermeant biotinylated glucose transporter photolabel (bio-LC-ATB-BGPA). […]

AMPK [3] = assay: Hypoxic AMPK phosphorylation in human dermal fibroblasts by MIF promoter genotype; assay type: cell-based; settings: 10 ng/ml during 9 hours of hypoxia
Experimental: as §2
To isolate human fibroblasts, human foreskin samples were obtained from the Yale Human Cell Resource Center (Department of Dermatology) in accordance with the Yale Human Investigations Committee. Fibroblasts were cultured in DMEM supplemented with 10% fetal bovine serum (FBS), penicillin (100 IU/ml) and streptomycin (100 μg/ml) at 37° C. Cells were studied at 80% confluence, and on the day prior to experiments, culture media was changed to DMEM with 1% FBS. Early passage fibroblasts were either subjected to 9 hours of hypoxia by incubation in an air-tight chamber gassed with 95% nitrogen/5% CO2 or control incubation in room air.
To confirm that relative MIF deficiency was responsible for impaired hypoxic AMPK activation in the low-expressing 5/5 genotype fibroblasts, we investigated the effect of adding human rMIF (10 ng/ml) to the culture media during hypoxic incubation.

B1: rMIF: recombinant human MIF (macrophage migration inhibitory factor), the preferred MIF agonist (protein, UniProt P14174 2-115, looked up)
Macrophage migration …: PMFIVNTNVPRASVPDGFLSELTQQLAQATGKPPQYIAVHVVPDQLMAFGGSSEPCALCSLHSIGKIGGAQNRSYSKLLCGLLAERLRISPDRVYINYYDMNAANVGWNNSTFA
AMPK [1]; 0-400 ng/ml, 0-120 minutes
  AMPK Thr172 phosphorylation: time- and dose-dependent increase
AMPK [1]; 400 ng/ml incubated for 60 minutes
  maximal AMPK activation (AMPK Thr172 phosphorylation): 1.5-2.0 fold increase
[2]
  glucose uptake: increase
GLUT4
  cell-surface GLUT4: increased
AMPK [3]; 5/5 genotype fibroblasts
  hypoxic AMPK signaling (AMPK phosphorylation): rescued
AMPK [3]; hypoxic non-5/5 genotype fibroblasts
  AMPK phosphorylation: no additional effect
